{"source": "patent US20060264369", "about": "“Aptamers to von Willebrand Factor and their use as thrombotic disease therapeutics” (published 2006)", "binders": {"B1": {"name": "AMX238.F5 (ssDNA)", "DNA": "CTACCTACGATCTGACTAGCGGAATGAGAAGCTGGTGGATTGCTCAGGTCTGCTGGCTGCTTACTCTCATGTAGTTCC"}, "B2": {"name": "AMX236.C1 (ssDNA)", "DNA": "CTACCTACGATCTGACTAGCGGAATGAGAATGTTGGTGGATTGCTCAGGTCTGCTGGCTGCTTACTCTCATGTAGTTCC"}, "B3": {"name": "AMX238.A11 (ssDNA)", "DNA": "B2 DNA with A30G"}, "B4": {"name": "AMX237.C1 (ssDNA)", "DNA": "B2 DNA with A29G, T33C"}, "B5": {"name": "AMX238.A6 (ssDNA)", "DNA": "B2 DNA with T33C, T34A, G36A"}, "B6": {"name": "AMX236.E2 (ssDNA)", "DNA": "B2 DNA with A29T, T33C, G36A"}, "B7": {"name": "AMX236.C6 (ssDNA)", "DNA": "B2 DNA with A30G, T33C"}, "B8": {"name": "AMX238.F6 (ssDNA)", "DNA": "B2 DNA with A29T, T33C"}, "B9": {"name": "AMX237.E10 (ssDNA)", "DNA": "B2 DNA with T33C"}, "B10": {"name": "AMX237.B12 (ssDNA)", "DNA": "B2 DNA with T33C, T34A"}, "B11": {"name": "AMX201.C8 (ARC840) (ssRNA)", "RNA": "GGAGCGCACUCAGCCACCCUCGCAAGCAUUUUAAGAAUGACUUGUGCCGCUGGCUGUUUUCGACCUCUCUGCUAGC", "modifications": "2'-F pyrimidines"}, "B12": {"name": "AMX201.H1 (ssRNA)", "RNA": "GGAGCGCACUCAGCCACUUUACGGUGAAAGUCUCUCGGGGUUCCGAGUUACGGUGCGUUUCGACCUCUCUGCUAGC", "modifications": "2'-F pyrimidines"}, "B13": {"name": "AMX201.G1 (ssRNA)", "RNA": "GGAGCGCACUCAGCCACGCUCGGUGGGGAAAUUUUAGCCUAAUUGGCUACUUGUGCGUUUCGACCUCUCUGCUAGC", "modifications": "2'-F pyrimidines"}, "B14": {"name": "AMX201.B1 (ssRNA)", "RNA": "GGAGCGCACUCAGCCACAGAGCCCUGAGUGUAUGAUCGCCUAGAUCUAUCGAUGCUUUUUCGACCUCUCUGCUAGC", "modifications": "2'-F pyrimidines"}, "B15": {"name": "AMX198.E5 (ssRNA)", "RNA": "GGAGCGCACUCAGCCACUUCGACUUUCAUGUCUGAAGUCCCUGCAGUGCGAGAGACGUUUCGACCUCUCUGCUAGC", "modifications": "2'-F pyrimidines"}, "B16": {"name": "AMX198.C10 (ssRNA)", "RNA": "GGAGCGCACUCAGCCACUGGUCCUUAGCUAGUUGUACUAGCGACGCGUUCAGGUGGUUUCGACCUCUCUGCUAGC", "modifications": "2'-F pyrimidines"}, "B17": {"name": "AMX198.E11 (ssRNA)", "RNA": "GGAGCGCACUCAGCCACGGUAACAUUGUUUCCGGCGAUUCUUUGAACGCCGUCGUGGUUUCGACCUCUCUGCUAGC", "modifications": "2'-F pyrimidines"}, "B18": {"name": "AMX201.H3 (ssRNA)", "RNA": "GGAGCGCACUCAGCCACUAACGGUUGAUCUCAGGACUAAAUAGUCAACAAGGAUGCGUUUCGACCUCUCUGCUAGC", "modifications": "2'-F pyrimidines"}, "B19": {"name": "AMX201.G9 (ssRNA)", "RNA": "B18 RNA with U24C", "modifications": "2'-F pyrimidines"}, "B20": {"name": "AMX198.G1 (ssRNA)", "RNA": "GGAGCGCACUCAGCCACAACACUAAUGGGGAAAGUUCAAGGAUUCUUGACCGGUGCGUUUCGACCUCUCUGCUAGC", "modifications": "2'-F pyrimidines"}, "B21": {"name": "AMX198.C6 (ssRNA)", "RNA": "GGAGCGCACUCAGCCACGGUGGUCAGUCAGUGAUAUGAUUAAGUUCAGCUGUGGCUGUUUCGACCUCUCUGCUAGC", "modifications": "2'-F pyrimidines"}, "B22": {"name": "AMX198.A10 (ssRNA)", "RNA": "GGAGCGCACUCAGCCACCAGUUAUGCUGGCUUUGGUCUUUGACUGUCUGAGUGUUCGUUUCGACCUCUCUGCUAGC", "modifications": "2'-F pyrimidines"}, "B23": {"name": "AMX201.B11 (ssRNA)", "RNA": "GGAGCGCACUCAGCCACACCGAGGCUGGAUAUCUACGAGAGGAAGUGCUGCUUGAAUUUCGACCUCUCUGCUAGC", "modifications": "2'-F pyrimidines"}, "B24": {"name": "AMX201.D10 (ssRNA)", "RNA": "B23 RNA with C20U, A55G", "modifications": "2'-F pyrimidines"}, "B25": {"name": "AMX201.D4 (ssRNA)", "RNA": "GGAGCGCACUCAGCCACUGGGGCUGAUCUCGCACGAUAGUUCGUGUCAAGGAUGCGUUUUCGACCUCUCUGCUAGC", "modifications": "2'-F pyrimidines"}, "B26": {"name": "AMX201.H11 (ssRNA)", "RNA": "GGAGCGCACUCAGCCACCCUGUCGUCUUUUGGUAGUCAGCCAAAAGCUAGUUGGUUGUUUCGACCUCUCUGCUAGC", "modifications": "2'-F pyrimidines"}, "B27": {"name": "AMX201.B3 (ssRNA)", "RNA": "B14 RNA with U41G", "modifications": "2'-F pyrimidines"}, "B28": {"name": "AMX201.D3 (ssRNA)", "RNA": "GGAGCGCACUCAGCCACGCCCACGUCAAAUUAUAGUCUACUUUGAUGUGCCCGUGGUUUCGACCUCUCUGCUAGC", "modifications": "2'-F pyrimidines"}, "B29": {"name": "AMX201.H4 (ssRNA)", "RNA": "GGAGCGCACUCAGCCACUAACGGUUGAUCUCAGGACUAAUAGUCAACAAGGAUGCGUUUCGACCUCUCUGCUAGC", "modifications": "2'-F pyrimidines"}, "B30": {"name": "AMX201.A8 (ssRNA)", "RNA": "GGAGCGCACUCAGCCACGCUGUACACUGAUGUUGUAACAUGUACCCCCUGGCUGUUUCGACCUCUCUGCUAGC", "modifications": "2'-F pyrimidines"}}, "note": "Residue numbers refer to the chain shown, from its start.", "data": [{"target": "T1, von Willebrand factor full length (Homo sapiens, UniProt P04275 SEQ:764-2813)", "assay": "filter; 20 nM protein", "conditions": "tags: Calbiochem 681300", "protocol": "(§1) When a significant positive ratio of binding of DNA in the presence of human or rabbit vWF A1 domain versus in the absence of protein was seen, the pools were cloned using the TOPO TA cloning kit (Invitrogen Cat.# 45-0641, Carlsbad, Calif.) according to the manufacturer's instructions. […] All unique clones were assayed twice in a 3-point dot blot screen (no protein target control, 20 nM full length human vWF (Calbiochem Cat.# 681300, La Jolla, Calif.), or 20 nM rabbit vWF A1 domain. The data is presented in the third and fourth columns of Table 17 below as the ratio of the fraction of the aptamer bound to the nitrocellulose in the presence of the target protein to the fraction of aptamer bound in the absence of the target protein.", "values": [{"binder": "B1", "binding signal": "1.05 ratio to no protein"}, {"binder": "B2", "binding signal": "1.03 ratio to no protein"}, {"binder": "B3", "binding signal": "0.85 ratio to no protein"}, {"binder": "B4", "binding signal": "0.76 ratio to no protein"}, {"binder": "B5", "binding signal": "0.92 ratio to no protein"}, {"binder": "B6", "binding signal": "0.93 ratio to no protein"}, {"binder": "B7", "binding signal": "1.06 ratio to no protein"}]}, {"target": "T2, von Willebrand factor A1 domain (rabbit) (Oryctolagus cuniculus)", "T2 chain": "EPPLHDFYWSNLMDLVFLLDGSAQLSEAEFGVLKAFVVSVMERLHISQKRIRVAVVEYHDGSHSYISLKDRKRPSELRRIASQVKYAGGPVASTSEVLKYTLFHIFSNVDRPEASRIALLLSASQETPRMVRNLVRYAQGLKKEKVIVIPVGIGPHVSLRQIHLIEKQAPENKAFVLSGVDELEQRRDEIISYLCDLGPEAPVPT", "assay": "filter; 20 nM protein", "conditions": "tags: 6xHis", "protocol": "as §1", "values": [{"binder": "B1", "binding signal": "4.4 ratio to no protein"}, {"binder": "B2", "binding signal": "3.28 ratio to no protein"}, {"binder": "B3", "binding signal": "4.54 ratio to no protein"}, {"binder": "B4", "binding signal": "3.47 ratio to no protein"}, {"binder": "B5", "binding signal": "3.47 ratio to no protein"}, {"binder": "B6", "binding signal": "3.59 ratio to no protein"}, {"binder": "B8", "binding signal": "5.36 ratio to no protein"}, {"binder": "B7", "binding signal": "5.77 ratio to no protein"}, {"binder": "B9", "binding signal": "6.04 ratio to no protein"}, {"binder": "B10", "binding signal": "4.67 ratio to no protein"}]}, {"target": "T1, von Willebrand factor full length", "assay": "filter; DPBS, 0.1 mg/mL BSA, RT", "conditions": "tags: Calbiochem 681300; label: 5'-32P", "protocol": "KD values were calculated by fitting the equation y=(max/(1+K/protein))+yint using KaleidaGraph (KaleidaGraph v. 3.51, Synergy Software).", "units": {"Kd": "nM"}, "values": [{"binder": "GGAGCCACACGACATTGGCGGGTTGTAATTACCACGCATGGCTCC (mixed, 2'-OH purines, deoxy pyrimidines)", "note": "[rRdY minimer SEQ 189]", "Kd": 1}, {"binder": "GGGACGGGGTGGGTAGACGGCGGGTATGTCCC (mixed, 2'-OH purines, deoxy pyrimidines)", "note": "[rRdY minimer SEQ 183]", "Kd": 10}]}, {"target": "von Willebrand factor A1 domain (Homo sapiens, UniProt P04275 SEQ:13-246)", "assay": "filter; DPBS, 0.1 mg/mL BSA, 24 C", "conditions": "label: 5'-32P", "protocol": "Based on this initial screen, KDs were determined for 12 of the best vWF dependent binding sequences using the dot blot assay and are reported in column 5 of Table 4 below.", "units": {"Kd": "nM"}, "values": [{"binder": "B11", "Kd": 0.2}, {"binder": "B12", "Kd": 189}, {"binder": "B13", "Kd": 190}, {"binder": "B14", "Kd": 19}, {"binder": "B15", "Kd": 172}, {"binder": "B16", "Kd": 555}, {"binder": "B17", "Kd": 1060}, {"binder": "B18", "Kd": 90}, {"binder": "B19", "Kd": 182}, {"binder": "B20", "Kd": 45}, {"binder": "B21", "Kd": 249}, {"binder": "B22", "Kd": 1860}]}, {"target": "T1, von Willebrand factor full length", "assay": "filter; 40% bound at 100 nM", "conditions": "tags: Calbiochem 681300", "protocol": "For KD determination, chemically synthesized aptamers were purified using denaturing polyacrylamide gel electrophoresis, 5′end labeled with γ-³²P ATP and were tested for direct binding to full length human vWF (Calbiochem Cat.# 681300, La Jolla, Calif.). An 8 point protein titration was used in the dot blot binding assay (100 nM, 30 nM, 10 nM, 3 nM, 1 nM, 300 pM, 100 pM, 0 pM)) in 1× Dulbecco's PBS containing […] (final volume of 50 uL) for 30 minutes at room temperature. KD values were calculated by fitting the equation y=(max/(1+K/protein))+yint using KaleidaGraph (KaleidaGraph v. 3.51, Synergy Software).", "units": {"Kd": "nM"}, "values": [{"binder": "GGCGTGCAGTGCCTTCGGCCGTGCGGTGCCTCCGTCACGCC (ssDNA, 2'-OMe at 23; 3'-idT)", "note": "[ARC1216]", "Kd": 0.6}, {"binder": "GGCGTGCAGTGCCTTCGGCCGTGCGGTGCCTCCGTCACGCC (ssDNA, 2'-OMe at 34; 3'-idT)", "note": "[ARC1227]", "Kd": 3}, {"binder": "GGCGTGCAGTGCCTTCGGCCGTGCGGTGCCTCCGTCACGCC (ssDNA, 2'-OMe at 29; 3'-idT)", "note": "[ARC1222]", "Kd": 0.9}]}, {"target": "von Willebrand factor A1 domain (human) (Homo sapiens, UniProt P04275 SEQ:13-246)", "assay": "filter; 100 nM protein", "conditions": "not given", "source_text": "When a significant positive ratio of binding of RNA in the presence of human or rabbit vWF A1 domain versus in the absence of protein was seen, the pools were cloned using the TOPO TA cloning kit (Invitrogen, Cat.# 45-0641, Carlsbad, Calif.) according to the manufacturer's instructions. Round 9 and 12 pool templates were cloned and sequenced (125 total sequences), producing 48 unique clones. All unique clones were transcribed, desalted, 5-³²P end-labeled, and assayed in a 3-point dot blot screen (no protein target control, 100 nM human vWF A1 domain (SEQ ID NO 5, FIG. 3), or 100 nM rabbit vWF A1 domain (SEQ ID NO 6, FIG. 3). The data is presented in the third and fourth columns of Table 4 below as the ratio of the fraction of the aptamer bound to the nitrocellulose in the presence of the target protein to the fraction of aptamer bound in the absence of the target protein.", "values": [{"binder": "B23", "binding signal": "1.55 ratio to no protein"}, {"binder": "B24", "binding signal": "1.59 ratio to no protein"}, {"binder": "B25", "binding signal": "2.23 ratio to no protein"}, {"binder": "B26", "binding signal": "1.75 ratio to no protein"}, {"binder": "B27", "binding signal": "1.69 ratio to no protein"}, {"binder": "B28", "binding signal": "1.76 ratio to no protein"}, {"binder": "B29", "binding signal": "1.79 ratio to no protein"}, {"binder": "B30", "binding signal": "1.82 ratio to no protein"}]}]}
